Assays:
[1] = target: Endogenous Ras of HEK-293T cells

Sequence of GST-Ras [GST: P08515] (P08515 whole entry, looked up): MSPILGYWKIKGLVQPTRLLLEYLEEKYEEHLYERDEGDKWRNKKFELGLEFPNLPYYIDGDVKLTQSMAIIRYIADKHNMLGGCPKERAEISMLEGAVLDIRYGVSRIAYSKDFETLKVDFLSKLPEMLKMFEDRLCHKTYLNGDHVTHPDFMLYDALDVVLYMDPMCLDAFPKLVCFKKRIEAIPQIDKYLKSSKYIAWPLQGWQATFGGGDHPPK

B1: Isolated CDC25 domain of GRF4 (protein)
chain: SLLQLSTVEVATQLSMRNFELFRNIEPTEYIDDLFKLRSKTSCANLKRFEEVINQETFWVASEILRETNQLKRMKIIKHFIKIALHCRECKNFNSMFAIISGLNLAPVARLRTTWEKLPNKYEKLFQDLQDLFDPSRNMAKYRNVLNSQNLQPPIIPLFPVIKKDLTFLHEGNDSKVDGLVNFEKLRMIAKEIRHVGRMASVNMDPALMFRTRKKKWRSLGSLSQGSTNATVLDVAQTGGHKKRVRRSSFLNAKKLYEDAQMARKVKQYLSNLELEMDEESLQTLSLQCEPATNT
Ras activation in vitro (GEF assay) (GST-Ras [GST: P08515]): we were unable to demonstrate significant activation of Ras by the isolated CDC25 domain of GRF4

B2: Flag-tagged full-length GRF4 (protein)
chain: MKPLAIPANHGVMGQQEKHSLPADFTKLHLTDSLHPQVTHVSSSHSGCSITSDSGSSSLSDIYQATESEAGDMDLSGLPETAVDSEDDDDEEDIERASDPLMSRDIVRDCLEKDPIDRTDDDIEQLLEFMHQLPAFANMTMSVRRELCAVMVFAVVERAGTIVLNDGEELDSWSVILNGSVEVTYPDGKAEILCMGNSFGVSPTMDKEYMKGVMRTKVDDCQFVCIAQQDYCRILNQVEKNMQKVEEEGEIVMVKEHRELDRTGTRKGHIVIKGTSERLTMHLVEEHSVVDPTFIEDFLLTYRTFLSSPMEVGKKLLEWFNDPSLRDKVTRVVLLWVNNHFNDFEGDPAMTRFLEEFENNLEREKMGGHLRLLNIACAAKAKRRLMTLTKPSREAPLPFILLGGSEKGFGIFVDSVDSGSKATEAGLKRGDQILEVNGQNFENIQLSKAMEILRNNTHLSITVKTNLFVFKELLTRLSEEKRNGAPHLPKIGDIKKASRYSIPDLAVDVEQVIGLEKVNKKSKANTVGGRNKLKKILDKTRISILPQKPYNDIGIGQSQDDSIVGLRQTKHIPTALPVSGTLSSSNPDLLQSHHRILDFSATPDLPDQVLRVFKADQQSRYIMISKDTTAKEVVIQAIREFAVTATPDQYSLCEVSVTPEGVIKQRRLPDQLSKLADRIQLSGRYYLKNNMETETLCSDEDAQELLRESQISLLQLSTVEVATQLSMRNFELFRNIEPTEYIDDLFKLRSKTSCANLKRFEEVINQETFWVASEILRETNQLKRMKIIKHFIKIALHCRECKNFNSMFAIISGLNLAPVARLRTTWEKLPNKYEKLFQDLQDLFDPSRNMAKYRNVLNSQNLQPPIIPLFPVIKKDLTFLHEGNDSKVDGLVNFEKLRMIAKEIRHVGRMASVNMDPALMFRTRKKKWRSLGSLSQGSTNATVLDVAQTGGHKKRVRRSSFLNAKKLYEDAQMARKVKQYLSNLELEMDEESLQTLSLQCEPATNTLPKNPGDKKPVKSETSPVAPRAGSQQKAQSLPQPQQQPPPAHKINQGLQVPAVSLYPSRKKVPVKDLPPFGINSPQALKKILSLSEEGSLERHKKQAEDTISNASSQLSSPPTSPQSSPRKGYTLAPSGTVDNFSDSGHSEISSRSSIVSNSSFDSVPVSLHDERRQRHSVSIVETNLGMGRMERRTMIEPDQYSLGSYAPMSEGRGLYATATVISSPSTEELSQDQGDRASLDAADSGRGSWTSCSSGSHDNIQTIQHQRSWETLPFGHTHFDYSGDPAGLWASSSHMDQIMFSDHSTKYNRQNQSRESLEQAQSRASWASSTGYWGEDSEGDTGTIKRRGGKDVSIEAESSSLTSVTTEETKPVPMPAHIAVASSTTKGLIARKEGRYREPPPTPPGYIGIPITDFPEGHSHPARKPPDYNVALQRSRMVARSSDTAGPSSVQQPHGHPTSSRPVNKPQWHKPNESDPRLAPYQSQGFSTEEDEDEQVSAV
fold Ras activation in vitro (bound 32P-GTP, 30 min, against Ras without GRFs set to 1) (GST-Ras [GST: P08515]): ˜2.9 fold activation in 30 min. | active Ras (Ras-GTP) precipitated with GST-Raf1-RBD from HEK-293T lysates [1]: heterologous expression of GRF4 in HEK-293T cells led to a weak activation of endogenous Ras, which was greatly enhanced following stimulation of cells with ... 8-Br-cAMP

Reference: patent US20020143164
